{"source": "paper PMC10833071", "molecular_target": "TdsR receptor of E. coli (on cells) (E. coli (endogenous in E. coli cells))", "experiment": "flow cytometry on cells", "data": [{"substance": "TepC-GFP (natural protein)", "values": [{"measurement": "GFP-labeled cells", "result": 33.1, "unit": "%"}]}]}
